These results are taken from patent US20150344570A1 (published 2015).

In test [1] the target is T1, FcgRIIb (human, UniProt P31994 43-217).
T1 construct: extracellular domain; also called FcγRIIb; 2b; not shown: His tag attached to the C terminus
T1 sequence (looked up): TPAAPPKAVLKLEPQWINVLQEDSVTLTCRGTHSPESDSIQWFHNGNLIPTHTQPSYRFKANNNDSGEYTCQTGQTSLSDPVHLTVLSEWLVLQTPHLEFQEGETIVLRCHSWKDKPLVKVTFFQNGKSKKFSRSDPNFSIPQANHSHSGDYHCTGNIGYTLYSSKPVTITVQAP
In words: SPR (Biacore), antibody captured on chip, FcgR extracellular domain as analyte. The method, then:
(§1) Specifically, H240-Kn204 resulting from the introduction of L234Y/K290Y/Y296W into H240-Kn033, H240-Hl211 resulting from the introduction of S239D/A330M/K334V into H240-Hl033, H240-Kn205 resulting from the introduction of L234Y/Y296W/S298C into H240-Kn033, and H240-Hl212 resulting from the introduction of S239D/K334V into H240-Hl033 were produced according to the method of Reference Example 1. H240-Kn204/H240-Hl211/L73-k0 and H240-Kn205/H240-Hl212/L73-k0 were prepared according to the method of Reference Example 1, by combining H240-Kn204 as one of the H chains and L73-k0 as the L chains with H240-Hl211 as the other H chain, and by combining H240-Kn205 as one of the H chains and L73-k0 as the L chains with H240-Hl212 as the other H chain, and then expressing them. The binding of the prepared variants to FcgRIa, FcgRIIaR, FcgRIIaH, FcgRIIb, FcgRIIIaF, and FcgRIIIaV was measured according to the method of Reference Example 8.
(§2) Analysis of interaction between objective antibody and the FcγR was carried out using Biacore T100 (GE Healthcare), Biacore T200, Biacore A100, and Biacore 4000. HBS-EP+ (GE Healthcare) was used as the running buffer, and the measurement temperature was set to 25° C. Chips produced by immobilizing the antigen peptide by the amine coupling method to a Series S sensor Chip CM5 (GE Healthcare), chips produced by allowing preliminarily biotinylated antigen peptides to interact with and immobilize onto a Series S Sensor Chip SA (certified) (GE Healthcare), chips produced by immobilizing Protein L (ACTIGEN, BioVision) to Series S Sencor Chip CM5 (GE Healthcare), or chips produced by immobilizing Protein A/G (Thermo Scientific) to Series S Sencor Chip CM5 (GE Healthcare) were used. Antibodies of interest were captured onto these chips, and allowed to interact to each FcγR diluted with running buffer. To regenerate and repeatedly use the chip, the antibodies captured onto the chip were washed off by reacting 10 mM glycine-HCl, pH 1.5.
On the technique in general: SPR reads the build-up and loss of mass on a sensor chip optically.

Test [2] concerns the target T2, FcgRIIaR (human, UniProt P12318 34-217).
T2 construct: extracellular domain; also called FcγRIIa R; FcgRIIa type R; not shown: His tag attached to the C terminus
T2 sequence (looked up): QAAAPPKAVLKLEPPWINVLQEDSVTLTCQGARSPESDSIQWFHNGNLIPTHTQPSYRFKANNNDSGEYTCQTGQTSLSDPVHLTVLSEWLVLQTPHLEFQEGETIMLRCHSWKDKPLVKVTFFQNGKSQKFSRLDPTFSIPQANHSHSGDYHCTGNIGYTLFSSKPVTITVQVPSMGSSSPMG
The description is as above. On the procedure: as §1, §2

Test [3] deals with T3, FcgRIa (human, UniProt P12314 16-292).
T3 construct: extracellular domain; also called FcγRIa; FcγRI (CD64); not shown: His tag attached to the C terminus
T3 sequence (P12314 16-292): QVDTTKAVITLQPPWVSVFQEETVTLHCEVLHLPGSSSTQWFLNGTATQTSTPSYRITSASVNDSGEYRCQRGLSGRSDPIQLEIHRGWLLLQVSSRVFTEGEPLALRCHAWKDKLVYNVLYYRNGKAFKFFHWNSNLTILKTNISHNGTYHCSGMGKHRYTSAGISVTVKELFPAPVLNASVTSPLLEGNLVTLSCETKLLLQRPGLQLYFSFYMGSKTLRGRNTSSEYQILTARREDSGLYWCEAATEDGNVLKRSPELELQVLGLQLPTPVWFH
Described as above. On the procedure:
as §1, §2

Test [4] addresses T4, FcgRIIaH (human, UniProt P12318 34-217).
T4 construct: extracellular domain; also called FcγRIIa H; FcgRIIa type H; not shown: His tag attached to the C terminus
T4 sequence (looked up): T2 sequence (looked up) with R134H
Described as above. On the procedure: as §1, §2

The target of test [5] is T5, FcgRIIIaF (human, UniProt P08637 17-208).
T5 construct: extracellular domain; also called FcγRIIIa F; 3aF; not shown: His tag attached to the C terminus
The description is as above. The method, then: as §1, §2
T5 sequence (P08637 17-208): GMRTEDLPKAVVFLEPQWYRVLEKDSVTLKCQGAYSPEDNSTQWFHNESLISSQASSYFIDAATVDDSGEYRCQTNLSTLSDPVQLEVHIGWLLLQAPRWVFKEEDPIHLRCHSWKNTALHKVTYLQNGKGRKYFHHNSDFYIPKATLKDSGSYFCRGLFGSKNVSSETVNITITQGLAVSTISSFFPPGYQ

Test [6] has as its target T6, FcgRIIaR (human, UniProt P12318 34-217).
T6 construct: extracellular domain; also called FcγRIIa R; FcgRIIa type R; not shown: His tag attached to the C terminus
T6 sequence (looked up): T2 sequence (looked up)
In words: SPR (Biacore); KD of H240-Kn033/H240-Hl033/L73-k0 divided by KD of this variant.

In test [7] the target is T7, FcgRIIb (human, UniProt P31994 43-217).
T7 construct: extracellular domain; also called FcγRIIb; 2b; not shown: His tag attached to the C terminus
T7 sequence (looked up): T1 sequence (looked up)
The test is described as above.

Test [8] concerns the target T8, FcgRIIIaV (human, UniProt P08637 17-208).
T8 construct: extracellular domain; also called FcγRIIIa V; 3aV; not shown: His tag attached to the C terminus
Described as above.

Test [9] addresses T9, FcgRIIIaF (human, UniProt P08637 17-208).
T9 construct: extracellular domain; also called FcγRIIIa F; 3aF; not shown: His tag attached to the C terminus
The description is as above.
T9 sequence (P08637 17-208): as above

Test [10] addresses T10, FcgRIIaH (human, UniProt P12318 34-217).
T10 construct: extracellular domain; also called FcγRIIa H; FcgRIIa type H; not shown: His tag attached to the C terminus
T10 sequence (looked up): T2 sequence (looked up) with R134H
The description is as above.

In test [11] the target is T8, FcgRIIIaV. In words: SPR (Biacore), antibody captured on chip, FcgR extracellular domain as analyte. On the procedure:
as §1, §2

The target of test [12] is T11, Protein A (UniProt P38507 37-327).
T11 construct: Commercial chromatography resin; also called rProtein A Sepharose Fast Flow (GE Healthcare)
In words: Protein A column chromatography, stepwise pH elution; eluted fractions analysed by cation exchange chromatography (peak area %).

In test [13] the target is T11, Protein A. In words: Protein A column chromatography, pH 3.6 elution; eluted fraction analysed by cation exchange chromatography (peak area %). The method, then: The quantity of CM to be loaded was adjusted in a way that the quantity of the loaded antibody is 20 mg/ml resine. Fractions eluted under each condition were collected and the components contained in each elution fraction were identified by cation exchange chromatography analysis. […] Samples purified by batchwise elution were used as controls.
The values represent the area of elution peak expressed in percentage.

Test [14] addresses T12, FcgRIIaR (human, UniProt P12318 34-217).
T12 construct: extracellular domain; Allotype R131; also called FcγRIIa R; FcgRIIa type R; not shown: His tag attached to the C terminus
T12 sequence (looked up): T2 sequence (looked up)
In words: SPR (Biacore); KD of IL6R-B3/IL6R-L divided by KD of the sample.

Test [15] has as its target T13, FcgRIIb (human, UniProt P31994 43-217).
T13 construct: extracellular domain; also called FcγRIIb; CD32B; not shown: His tag attached to the C terminus
T13 sequence (looked up): T1 sequence (looked up)
The description is as above.

Test [16] has as its target T14, FcgRIIaH (human, UniProt P12318 34-217).
T14 construct: extracellular domain; Allotype H131; also called FcγRIIa H; FcgRIIa type H; not shown: His tag attached to the C terminus
T14 sequence (looked up): T2 sequence (looked up) with R134H
The description is as above.

Substitutions are numbered along the chain they refer to.

T8 sequence (P08637 17-208 F176V limits assumed): as the sequence (P08637 17-208) above, with F160V counted along it

B1: H240-Kn125/H240-Hl076/L73-k0 (antibody, human IgG1, kappa)
heavy 1: QDQLVQSGAEVKKPGASVKVSCKASGFNIKDTYIQWVRQAPGQGLEWMGRIDPLRKQTKYREKFEGRVTITADTSTNTAYMELSSLRSEDTAVYYCVRSGREFDYWGQGTLVTVSSASTKGPSVFPLAPSSKSTSGGTAALGCLVKDYFPEPVTVSWNSGALTSGVHTFPAVLQSSGLYSLSSVVTVPSSSLGTQTYICNVNHKPSNTKVDKKVEPKSCDKTHTCPPCPAPEYQWGPMVFLFPPKPKDTLMISRTPEVTCVVVDVSDEEPEVKFNWYVDGVEVHNAKTKPREEQYNATYRVVSVLTVLHQDWLNGKEYKCKVSNKALPAPIEKTISKAKGQPREPQVCTLPPSRDELTKNQVSLWCLVKGFYPSDIAVEWESNGQPENNYKTTPPVLDSDGSFFLYSKLTVDKSRWQQGNVFSCSVMHEALHNHYTQKSLSLSP
heavy 2: QDQLVQSGAEVKKPGASVKVSCKASGFNIKDTYIQWVRQAPGQGLEWMGRIDPLRKQTKYREKFEGRVTITADTSTNTAYMELSSLRSEDTAVYYCVRSGREFDYWGQGTLVTVSSASTKGPSVFPLAPSSKSTSGGTAALGCLVKDYFPEPVTVSWNSGALTSGVHTFPAVLQSSGLYSLSSVVTVPSSSLGTQTYICNVNHKPSNTKVDKKVEPKSCDKTHTCPPCPAPELLGGPSVFLFPPKPKDTLMISRTPEVTCVVVDVSHEEPEVKFNWYVDGVEVHNAKTKPREEQYNSTYRVVSVLTVLHQDWLNGKEYKCKVSNDALPMPIEETISKAKGQPREPQVYTLPPSRCELTKNQVSLSCAVKGFYPSDIAVEWESNGQPENNYKTTPPVLDSDGSFFLVSKLTVDKSRWQQGNVFSCSVMHEALHNHYTQKSLSLSP
light: DIQMTQSPSSLSASVGDRVTITCRASQDIHKYIAWYQQKPGQAPRLLIQYTSTLQPGVPSRFSGSGSGTDYTFTISSLQPEDIATYYCLQYEQLRTFGGGTKVEIKRTVAAPSVFIFPPSDEQLKSGTASVVCLLNNFYPREAKVQWKVDNALQSGNSQESVTEQDSKDSTYSLSSTLTLSKADYEKHKVYACEVTHQGLSSPVTKSFNRGEC
As usually defined, the Kd is the concentration at which binding is half-saturated. Regarding B1, the Kd in [1] came to 3900 nM; in test [2], 420 nM; in test [3], 0.066 nM; in test [4], 140 nM; in test [5], 1.3 nM.

B2: H240-Kn125/H240-Hl076/L73-k0 (antibody, human IgG1, kappa)
heavy 1: B1 heavy 1
heavy 2: B1 heavy 2
light: B1 light
notes: Anti-epiregulin heterodimerized IgG1, knobs-into-holes
For the molecule B2, the “fold 2aR” value in test [6] was 1.8 fold. Besides, the “fold 2b” value in test [7] is 0.8 fold. For the same molecule, the “fold 3aV” value in test [8] amounted to 185 fold. For the same molecule, the “fold 3aF” value in test [9] is 223 fold. In addition, the “fold 2aH” value in [10] is 3.7 fold. The same molecule returned a Kd in test [11] of 0.26 nM.

B3: J142-z73/L180-k (antibody, human IgG4 S228P, kappa)
heavy: QVQLVQSGSELKKPGASVKVSCKASGYTFTDNNMDWVRQAPGQGLEWMGDINTRSGGSIYNEEFQDRVTMTIDKSTGTAYMELSSLRSEDTAVYYCARRRSYGYYHDEWGEGTLVTVSSASTKGPSVFPLAPCSRSTSESTAALGCLVKDYFPEPVTVSWNSGALTSGVHTFPAVLQSSGLYSLSSVVTVPSSSLGTKTYTCNVDHKPSNTKVDKRVESKYGPPCPPCPAPEFLGGPSVFLFPPKPKDTLMISRTPEVTCVVVDVSQEDPEVQFNWYVDGVEVHNAKTKPREEQFNSTYRVVSVLTVLHQDWLNGKEYKCKVSNKGLPSSIEKTISKAKGQPREPQVYTLPPSQEEMTKNQVSLTCLVKGFYPSDIAVEWESNGQPENNYKTTPPVLDSDGSFFLYSRLTVDKSRWQEGNVFSCSVMHEALHNRFTQESLSLSP
light: DIQMTQSPSSLSASVGDRVTITCKASRNIERNLAWYQQKPGQAPELLIYSASRKESGVPDRFSGSRYGTDFTLTISSLQPEDLATYYCQQYYSPPLTFGGGTKVEIKRTVAAPSVFIFPPSDEQLKSGTASVVCLLNNFYPREAKVQWKVDNALQSGNSQESVTEQDSKDSTYSLSSTLTLSKADYEKHKVYACEVTHQGLSSPVTKSFNRGEC
notes: also called homomeric antibody against FX
Consider B3, for which the binding result in test [12] is given as “no binding”.

B4: J300-z107/L210-k (antibody, human IgG4 S228P, kappa)
heavy: B3 heavy with T69I, I72V, G77D, Y95H, R100K, H106L, K198Q, F295Y, R408K, F435Y
light: B3 light with L83I, Y92S
notes: Homomeric by-product in the culture medium of Q407-z106/J300-z107/L210-k; also called homomeric antibody against FX
For the molecule B4, the binding result in [13] is on record as “no binding”.

B5: IL6R-BP253/IL6R-L (antibody, human IgG1, kappa)
heavy: QVQLQESGPGLVKPSETLSLTCAVSGHSISHDHAWSWVRQPPGEGLEWIGFISYSGITNYNPSLQGRVTISRDNSKNTLYLQMNSLRAEDTAVYYCARSLARTTAMDYWGEGTLVTVSSASTKGPSVFPLAPSSKSTSGGTAALGCLVKDYFPEPVTVSWNSGALTSGVHTFPAVLQSSGLYSLSSVVTVPSSSLGTQTYICNVNHKPSNTKVDKKVEPKSCDKTHTCPPCPAPELLGGPSVFLFPPKPKDTLMISRTPEVTCVVVDVEHEDPEVKFNWYVDGVEVHNAKTKPREEQYNSTYRVVSVLTVLHQDWLNGKEYKCKVSNKAFPAPIEKTISKAKGQPREPQVYTLPPSRDELTKNQVSLTCLVKGFYPSDIAVEWESNGQPENNYKTTPPVLDSDGSFFLYSKLTVDKSRWQQGNVFSCSVMHEALHNHYTQESLSLSP
light: not shown
notes: Homodimer
With B5, the “relative KD” value in [14] worked out at 480; in test [15] it was 349; in test [16], 0.9.
